# Laboratory results taken from patent US20230149516A1, “USE OF PEPTIDYLGLYCINE ALPHA-AMIDATING MONOOXYGENASE (PAM) FOR THERAPEUTIC PURPOSE” (PAM THERAGNOSITICS GMBH, priority 2020, published 2023).
# B1: recombinant human PAM: Recombinant human peptidylglycine alpha-amidating monooxygenase, aa 21-834, SEQ ID No. 10 (Example 1); Example 10 used endotoxin-free recombinant PAM from SinoBiological (protein, listed as Homo sapiens)
# chain: SPLSVFKRFKETTRPFSNECLGTTRPVVPIDSSDFALDIRMPGVTPKQSDTYFCMSMRIPVDEEAFVIDFKPRASMDTVHHMLLFGCNMPSSTGSYWFCDEGTCTDKANILYAWARNAPPTRLPKGVGFRVGGETGSKYFVLQVHYGDISAFRDNNKDCSGVSLHLTRLPQPLIAGMYLMMSVDTVIPAGEKVVNSDISCHYKNYPMHVFAYRVHTHHLGKVVSGYRVRNGQWTLIGRQSPQLPQAFYPVGHPVDVSFGDLLAARCVFTGEGRTEATHIGGTSSDEMCNLYIMYYMEAKHAVSFMTCTQNVAPDMFRTIPPEANIPIPVKSDMVMMHEHHKETEYKDKIPLLQQPKREEEEVLDQGDFYSLLSKLLGEREDVVHVHKYNPTEKAESESDLVAEIANVVQKKDLGRSDAREGAEHERGNAILVRDRIHKFHRLVSTLRPPESRVFSLQQPPPGEGTWEPEHTGDFHMEEALDWPGVYLLPGQVSGVALDPKNNLVIFHRGDHVWDGNSFDSKFVYQQIGLGPIEEDTILVIDPNNAAVLQSSGKNLFYLPHGLSIDKDGNYWVTDVALHQVFKLDPNNKEGPVLILGRSMQPGSDQNHFCQPTDVAVDPGTGAIYVSDGYCNSRIVQFSPSGKFITQWGEESSGSSPLPGQFTVPHSLALVPLLGQLCVADRENGRIQCFKTDTKEFVREIKHSSFGRNVFAISYIPGLLFAVNGKPHFGDQEPVQGFVMNFSNGEIIDIFKPVRKHFDMPHDIVASEDGTVYIGDAHTNTVWKFTLTEKLEHRSVKKAGIEVQEIKEAEAVVGS
# What was measured:
# [1] = system: endogenous human ADM-Gly; assay: Conversion of endogenous ADM-Gly to bio-ADM in human Li-Heparin plasma with exogenous recombinant PAM; format: biochemical; details: 37° C.
# Description: ADM-Gly was quantified as based on Weber et al. (Weber et al. 2017. JALM 2(2): 222-233) for bioactive ADM with the following modifications: the tracer-antibody used for ADM-Gly detection, labelled with MACN-acridinium-NHS, was directed to the C-terminal glycine of ADM-Gly. The assay was calibrated with synthetic ADM-Gly. The limit of detection (LOD) was 10 pg/mL of ADM-Gly. Cross-reactivity of antibody directed to the C-terminal glycine of ADM with bio-ADM was in the range between 6 and 50% in a concentration dependent manner. All determined ADM-Gly concentrations were corrected for cross-reactivity as follows: For each ADM-Gly quantification additional quantification of bio-ADM in corresponding samples was performed using the Sphingotest® bio-ADM immunoassay. […] The determined signal (RLU) was used to calculate the false-positive ADM-Gly concentration (pg/mL) using the ADM-Gly calibration curve. This concentration was subtracted from the initially determined ADM-Gly concentration.
# In a further experiment we investigated the formation of bio-ADM from endogenous ADM-Gly by native human plasma PAM and the effect of addition of exogenous recombinant human PAM. […] The concentration of bio-ADM in the reaction sample was quantified using the Sphingotest® bio-ADM immunoassay as described recently (Weber et al. 2017. JALM 2(2): 222-233). […]
# [2] = system: circulating ADM-Gly; assay: bio-ADM increase after administration of recombinant human PAM in rats (example 9); format: in vivo, Wistar-rat; details: intravenously administered recombinant human PAM
# Experimental: Two animals (Wistar-rat, male, 2-3 month of age) received 17 μg of recombinant human PAM (see example 1) as a single dose in a total volume of 500 μl (in phosphate-buffered saline). One control-animal received 500 μl of PBS. Blood sampling (Li-Heparin Plasma) was carried out 30 min prior to application and 30 min, 2 h, 4 h, 8 h, 24 h and 48 h, respectively, after application.
# [3] = system: PAM activity; assay: Circulating PAM activity in rats after intravenous injection of PAM, ascorbate or both, measured without exogenous ascorbate; format: in vivo, Wistar rats
# [4] = system: bio-ADM; assay: Circulating bio-ADM concentration in rats after intravenous injection of PAM, ascorbate or both; format: in vivo, Wistar rats
# [5] = Half-life of recombinant PAM in rats (example 10, one-phase decay model); format: in vivo; details: example 10, single i.v. dose, FIG. 22
# Experimental: FIG. 22: Half-life of recombinant PAM in rats, determined from one-phase decay model.
# Endotoxin-free, recombinant PAM (SinoBiological) was buffer exchanged into sterile phosphate buffer saline (PBS, Dulbecco) and adjusted to 50 μg/mL. Sterile ascorbate solution for injection (200 mg/mL, vitamin C 1000, WÖRWAG Pharma) was purchased in a local pharmacy and adjusted under sterile conditions with PBS to 40 mg/mL. For combined injections of PAM and ascorbate, the compounds were prepared separately in equal volumes (100 μg/mL or 80 mg/mL for PAM and ascorbate, respectively). Both compounds were combined directly prior to injection to result in concentrations of 50 μg/mL for PAM and 40 mg/mL for ascorbate. Sterile PBS was used as placebo. All samples were stored at −80° C. until use. Animals, male Wistar rats, 2-3 month of age, were assigned into 4 groups (placebo, ascorbate, PAM, PAM+ascorbate) with 3 animals per group. Each animal in the individual group received 500 μl of the respective compound intravenously as a single dose injection. Blood sampling was performed as Li-Heparin 30 min prior to and 15, 30, 45, 60, 120, 180, 240 and 300 min post injection. PAM activities were determined as described in example 3.
molecule,measurement,setting,value
B1,increase of the bio-ADM synthesis rate from endogenous human ADM-Gly (averaged factor),"[1]; 500 ng/ml exogenous recombinant PAM (approximate doubling of PAM concentration) in human Li-Heparin plasma pool with high ADM-Gly, at each time-point, vs native PAM alone",1.8
same,ADM-Gly consumption / shift of ADM-Gly/bio-ADM ratio,[1]; 500 ng/ml exogenous recombinant PAM in human Li-Heparin plasma,faster shift of the ADM-Gly/bio-ADM ratio towards bio-ADM
same,time of maximum bio-ADM increase,[2],4 h
same,maximal elevation of PAM activity compared to placebo group (factor),[3]; 15 minutes past injection,6
same,PAM activity compared to placebo group,[3]; 120 min past injection,not significantly different
same,time of maximal elevation of PAM activity past injection,[3]; single i.v. injection,15 min
same,elevation of circulating PAM activity,"[3]; single i.v. injection of 500 μl (PAM 50 μg/mL, ascorbate 40 mg/mL), vs placebo",highly significant elevation
same,time PAM activity remained elevated after injection,"[3]; single i.v. injection, significantly elevated for PAM and the combination",60 min
same,bio-ADM concentration elevated by the factor (normalized to placebo),[4]; after 15 min,1.8
same,bio-ADM concentration elevated by the factor (normalized to placebo),[4]; after 30 min,2.4
same,bio-ADM concentration elevated by the factor (normalized to placebo),[4]; after 45 min,2
same,bio-ADM concentration elevated by the factor (normalized to placebo),[4]; after 60 min,not significantly different
same,bio-ADM concentration compared to the Placebo group,[4]; after 120 minutes,not significantly different
same,time of maximum bio-ADM increase,"[4]; intravenously administered, example 10",30 min
same,half-life of recombinant human PAM in rats,[5],52.7 min
